Sequences and labels used below:
T1: Fibrinogen D-fragment (UniProt P02671;P02675;P02679-2)
T1 sequence 1: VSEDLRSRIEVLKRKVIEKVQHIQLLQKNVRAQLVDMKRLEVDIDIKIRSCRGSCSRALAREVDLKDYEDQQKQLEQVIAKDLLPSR
T1 sequence 2: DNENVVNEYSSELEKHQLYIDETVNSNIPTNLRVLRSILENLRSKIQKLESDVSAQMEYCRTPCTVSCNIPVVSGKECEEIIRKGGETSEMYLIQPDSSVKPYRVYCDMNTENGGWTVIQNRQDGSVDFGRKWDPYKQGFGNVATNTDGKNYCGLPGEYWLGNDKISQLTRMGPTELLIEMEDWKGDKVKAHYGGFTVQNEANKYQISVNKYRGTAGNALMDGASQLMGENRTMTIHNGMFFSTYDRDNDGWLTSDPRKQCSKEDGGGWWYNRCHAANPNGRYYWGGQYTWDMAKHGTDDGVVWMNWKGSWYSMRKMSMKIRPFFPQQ
T1 sequence 3: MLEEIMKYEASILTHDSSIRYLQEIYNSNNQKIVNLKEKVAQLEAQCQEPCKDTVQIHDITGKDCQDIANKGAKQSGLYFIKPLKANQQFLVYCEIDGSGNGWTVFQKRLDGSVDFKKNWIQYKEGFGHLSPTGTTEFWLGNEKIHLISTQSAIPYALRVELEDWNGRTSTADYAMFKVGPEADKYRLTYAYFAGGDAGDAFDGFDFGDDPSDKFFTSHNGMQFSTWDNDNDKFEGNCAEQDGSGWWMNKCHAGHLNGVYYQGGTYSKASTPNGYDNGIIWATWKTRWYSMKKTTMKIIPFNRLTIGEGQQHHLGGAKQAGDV

B1: ClfAPWY (domain or fragment)
chain: VAADAPAAGTDITNQLTNVTVGIDSGTTVYPHQAGYVKLNYGFSVPNSAVKGDTFKITVPKELNLNGVTSTAKVPPIMAGDQVLANGVIDSDGNVIYTFTDYVNTKDDVKATLTMPAYIDPENVKKTGNVTLATGIGSTTANKTVLVDYEKYGKFYNLSIKGTIDQIDKTNNTYRQTIYVNPSGDNVIAPVLTGNLKPNTDSNALIDQQNTSIKVYKVDNAADLSESYFVNPENFEDVTNSVNITFANPNQYKVEFNTPDDQITTPYIVVVNGHIDPNSKGDLALRSTLYGANSNIIARSMSWDNEVAFNNGSGSGDGIDKPVVPEQPDEPGEIEPIPE
B2: ClfA N3 (ClfA_(370–559)) (domain or fragment)
chain: EKYGKFYNLSIKGTIDQIDKTNNTYRQTIYVNPSGDNVIAPVLTGNLKPNTDSNALIDQQNTSIKVYKVDNAADLSESYFVNPENFEDVTNSVNITFPNPNQYKVEFNTPDDQITTPYIVVVNGHIDPNSKGDLALRSTLYGYNSNIIWRSMSWDNEVAFNNGSGSGDGIDKPVVPEQPDEPGEIEPIPE
B3: tefibazumab (antibody, V domains shown)
VH: QVQLKESGPGLVKPSQTLSITCTISGFSLSRYSVHWVRQPPGKGLEWLGMIWGGGNTDYNSALKSRLSISKDNSKNQVFLKMNSLTAADTAVYYCARKGEFYYGYDGFVYWGQGTLVTVSS
VL: DIVMTQSPDSLAVSLGERVTMNCKSSQSVLYSSNQKNYLAWYQQKPGQSPKLLIYWASTRESGVPDRFSGSGSGTDFTLTISSVQAEDLAVYYCHQYLSSYTFGGGTKLEIK
B4: ClfA_(229–545) (domain or fragment)
chain: GTDITNQLTNVTVGIDSGTTVYPHQAGYVKLNYGFSVPNSAVKGDTFKITVPKELNLNGVTSTAKVPPIMAGDQVLANGVIDSDGNVIYTFTDYVNTKDDVKATLTMPAYIDPENVKKTGNVTLATGIGSTTANKTVLVDYEKYGKFYNLSIKGTIDQIDKTNNTYRQTIYVNPSGDNVIAPVLTGNLKPNTDSNALIDQQNTSIKVYKVDNAADLSESYFVNPENFEDVTNSVNITFPNPNQYKVEFNTPDDQITTPYIVVVNGHIDPNSKGDLALRSTLYGYNSNIIWRSMSWDNEVAFNNGSGSGDGIDKPVVP
B5: Human fibrinogen (complex)
chain 1: ADSGEGDFLAEGGGVRGPRVVERHQSACKDSDWPFCSDEDWNYKCPSGCRMKGLIDEVNQDFTNRINKLKNSLFEYQKNNKDSHSLTTNIMEILRGDFSSANNRDNTYNRVSEDLRSRIEVLKRKVIEKVQHIQLLQKNVRAQLVDMKRLEVDIDIKIRSCRGSCSRALAREVDLKDYEDQQKQLEQVIAKDLLPSRDRQHLPLIKMKPVPDLVPGNFKSQLQKVPPEWKALTDMPQMRMELERPGGNEITRGGSTSYGTGSETESPRNPSSAGSWNSGSSGPGSTGNRNPGSSGTGGTATWKPGSSGPGSTGSWNSGSSGTGSTGNQNPGSPRPGSTGTWNPGSSERGSAGHWTSESSVSGSTGQWHSESGSFRPDSPGSGNARPNNPDWGTFEEVSGNVSPGTRREYHTEKLVTSKGDKELRTGKEKVTSGSTTTTRRSCSKTVTKTVIGPDGHKEVTKEVVTSEDGSDCPEAMDLGTLSGIGTLDGFRHRHPDEAAFFDTASTGKTFPGFFSPMLGEFVSETESRGSESGIFTNTKESSSHHPGIAEFPSRGKSSSYSKQFTSSTSYNRGDSTFESKSYKMADEAGSEADHEGTHSTKRGHAKSRPVRGIHTSPLGKPSLSP
chain 2: QGVNDNEEGFFSARGHRPLDKKREEAPSLRPAPPPISGGGYRARPAKAAATQKKVERKAPDAGGCLHADPDLGVLCPTGCQLQEALLQQERPIRNSVDELNNNVEAVSQTSSSSFQYMYLLKDLWQKRQKQVKDNENVVNEYSSELEKHQLYIDETVNSNIPTNLRVLRSILENLRSKIQKLESDVSAQMEYCRTPCTVSCNIPVVSGKECEEIIRKGGETSEMYLIQPDSSVKPYRVYCDMNTENGGWTVIQNRQDGSVDFGRKWDPYKQGFGNVATNTDGKNYCGLPGEYWLGNDKISQLTRMGPTELLIEMEDWKGDKVKAHYGGFTVQNEANKYQISVNKYRGTAGNALMDGASQLMGENRTMTIHNGMFFSTYDRDNDGWLTSDPRKQCSKEDGGGWWYNRCHAANPNGRYYWGGQYTWDMAKHGTDDGVVWMNWKGSWYSMRKMSMKIRPFFPQQ
chain 3: YVATRDNCCILDERFGSYCPTTCGIADFLSTYQTKVDKDLQSLEDILHQVENKTSEVKQLIKAIQLTYNPDESSKPNMIDAATLKSRKMLEEIMKYEASILTHDSSIRYLQEIYNSNNQKIVNLKEKVAQLEAQCQEPCKDTVQIHDITGKDCQDIANKGAKQSGLYFIKPLKANQQFLVYCEIDGSGNGWTVFQKRLDGSVDFKKNWIQYKEGFGHLSPTGTTEFWLGNEKIHLISTQSAIPYALRVELEDWNGRTSTADYAMFKVGPEADKYRLTYAYFAGGDAGDAFDGFDFGDDPSDKFFTSHNGMQFSTWDNDNDKFEGNCAEQDGSGWWMNKCHAGHLNGVYYQGGTYSKASTPNGYDNGIIWATWKTRWYSMKKTTMKIIPFNRLTIGEGQQHHLGGAKQAGDV

Holding throughout (assay): SPR
(In general: SPR reads the build-up and loss of mass on a sensor chip optically.)

The target of one assay is GST-tagged Fg γ peptide.
Assay [1] has as its target B5.
Assay [2] deals with T1, Fibrinogen D-fragment.
Assay [3] addresses B5. The source holds these as a separate data set.
Assay [4] deals with T1, Fibrinogen D-fragment. This is another data set of the same source.
Assay [5] concerns the target ClfA_(229–545) (S. aureus strain Newman, UniProt Q53653).
For assay [6], the target named is B4.

Several values for one entry are separate records, joined by “and”; a condition that tells them apart may be missing. Identical values can stand only once. Like-named read-outs stand apart in the source and are kept apart here.

The record followed here is PMC5264652 (EBioMedicine, 2016).

“ClfA_(229–545) (from UniProt Q53653 229-545) (domain or fragment)”: the fold difference in KD against Fg or Fg D-fragment with GST-tagged Fg γ peptide was found to be 50 fold.

For the molecule “ClfA N3 (ClfA_(370–559)) (from UniProt Q53653 370-559) (domain or fragment)”, in the assay with GST-tagged Fg γ peptide, the fold lower affinity against intact Fg or Fg D-fragment was 10 fold.

As for B1, the Kd with Human fibrinogen [1] is 10000 nM; with Fibrinogen D-fragment [2] it was 17000 nM.

For B2, the “fold of KD against ClfA229-545 on the same protein” value in the assay with Human fibrinogen [3] and in the assay with Fibrinogen D-fragment [4] was around 10 fold throughout.

With B3, in the assay with ClfA_(229–545) [5], the IC50 is 330 nM and 390 nM; the dissociation constant (Kd) was 0.79 nM and 0.81 nM and 0.7 nM; the koff was found to be 0.00049 s⁻¹; the association rate constant (kon) was found to be 594000 M⁻¹ s⁻¹.

As for B4, the Kd in the assay with Human fibrinogen [3] is 610 nM and 660 nM.

Turning to B5, in the assay with ClfA_(229–545) [6], the IC50 is 430 nM and 480 nM.

Broadly, the Kd is a measure of binding affinity in units of concentration. Read a low Kd as a tighter complex. The term IC50 denotes the concentration that gives 50% inhibition. Read a high IC50 as a need for much substance. A word on the koff: it is the first-order rate constant of dissociation. High values mean fast dissociation, low ones slow dissociation. The kon is a measure of how fast the partners come together. The low end stands for slower complex formation, the high end for faster complex formation.
